Assays:
[1] = biological target: T1, c-MET on human target cells (human, UniProt P08581 25-1390); experiment: cell-based or functional assay
[2] = biological target: T1, c-MET on human target cells; experiment: cell-based or functional assay; remark: listed apart in the source
[3] = biological target: T1, c-MET on human target cells; experiment: cell-based or functional assay; remark: listed apart in the source
[4] = biological target: T1, c-MET on human target cells; experiment: cell-based or functional assay; remark: listed apart in the source
[5] = biological target: T1, c-MET on human target cells; experiment: cell-based or functional assay; remark: listed apart in the source
[6] = biological target: T1, c-MET on human target cells; experiment: cell-based or functional assay; remark: listed apart in the source
[7] = biological target: T1, c-MET on human target cells; experiment: cell-based or functional assay; remark: listed apart in the source
[8] = biological target: T2, AF647 labeled c-met protein (UniProt P08581 25-932, limits assumed, labeled with AlexaFluor 647 (AF647)); experiment: flow cytometry, EC50 relative to parental Affy7 CAR-T cells (Round 2)
T2 construct: Soluble labeled c-met protein titrated on CAR-T cells
Experimental: (§1) Binding of labeled c-MET to CAR-T cells expressing the affinity tuned c-MET scFvs was evaluated by transducing lentivirus anti-c-MET CAR particles into human T cells to form c-MET CAR-T cells incubated with AF647-labeled c-MET. […] Following a 48 hr. incubation at 37° C., the culture media was brought up to […] per well and incubated at 37° C. for 10 days.
(§2) Cells were stained on ice for 30 mins and then washed with PBS. After washing, residually bound protein on CAR T cells were measured on a flow cytometer (Beckman, CytoFLEX®). The resulting binding data was fit using a non-linear regression analysis on GraphPad Prism to calculate half effective dose concentration (EC₅₀) values. The results of this analysis are shown in FIGS. 2-5 and Tables 2-5 below.

[9] = biological target: T2, AF647 labeled c-met protein; experiment: flow cytometry, AF647-labeled c-met protein titrated on CAR-T cells (Round 2)
Experimental: as §1, §2

T1 sequence (P08581 25-1390): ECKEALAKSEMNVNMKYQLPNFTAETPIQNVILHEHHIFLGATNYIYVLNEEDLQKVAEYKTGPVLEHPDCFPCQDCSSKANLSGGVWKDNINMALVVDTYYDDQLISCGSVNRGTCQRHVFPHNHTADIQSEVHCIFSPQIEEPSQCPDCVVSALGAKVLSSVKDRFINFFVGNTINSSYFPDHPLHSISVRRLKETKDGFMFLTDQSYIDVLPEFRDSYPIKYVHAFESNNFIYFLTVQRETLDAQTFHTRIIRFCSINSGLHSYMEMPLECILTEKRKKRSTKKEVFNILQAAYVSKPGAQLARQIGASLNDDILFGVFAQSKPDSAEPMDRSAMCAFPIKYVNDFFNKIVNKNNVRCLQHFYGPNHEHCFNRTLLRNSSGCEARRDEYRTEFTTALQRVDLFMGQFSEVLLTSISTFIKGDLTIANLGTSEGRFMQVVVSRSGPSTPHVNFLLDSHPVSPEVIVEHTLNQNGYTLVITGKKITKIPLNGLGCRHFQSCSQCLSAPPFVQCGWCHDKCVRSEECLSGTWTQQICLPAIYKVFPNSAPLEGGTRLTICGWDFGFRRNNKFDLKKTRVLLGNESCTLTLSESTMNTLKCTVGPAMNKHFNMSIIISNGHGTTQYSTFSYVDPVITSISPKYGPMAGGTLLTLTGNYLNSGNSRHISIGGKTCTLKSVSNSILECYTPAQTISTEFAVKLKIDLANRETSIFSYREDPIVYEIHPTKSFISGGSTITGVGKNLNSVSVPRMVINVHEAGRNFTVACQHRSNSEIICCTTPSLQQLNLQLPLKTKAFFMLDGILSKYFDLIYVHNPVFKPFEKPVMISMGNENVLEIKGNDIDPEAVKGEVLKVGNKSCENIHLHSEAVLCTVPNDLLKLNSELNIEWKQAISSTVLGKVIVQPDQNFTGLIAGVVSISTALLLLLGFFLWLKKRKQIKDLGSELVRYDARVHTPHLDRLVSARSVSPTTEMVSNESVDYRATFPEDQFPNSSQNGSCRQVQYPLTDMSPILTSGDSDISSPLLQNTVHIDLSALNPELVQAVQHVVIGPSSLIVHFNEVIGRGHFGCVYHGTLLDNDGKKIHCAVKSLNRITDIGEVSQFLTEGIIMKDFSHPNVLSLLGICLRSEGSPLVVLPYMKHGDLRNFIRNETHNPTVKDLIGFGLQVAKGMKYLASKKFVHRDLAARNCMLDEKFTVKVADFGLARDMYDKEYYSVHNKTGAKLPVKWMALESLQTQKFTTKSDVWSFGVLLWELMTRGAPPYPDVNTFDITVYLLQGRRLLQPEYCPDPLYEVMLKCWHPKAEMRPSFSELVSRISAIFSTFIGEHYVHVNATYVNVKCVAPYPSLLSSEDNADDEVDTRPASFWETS
T2 sequence (P08581 25-932 limits assumed): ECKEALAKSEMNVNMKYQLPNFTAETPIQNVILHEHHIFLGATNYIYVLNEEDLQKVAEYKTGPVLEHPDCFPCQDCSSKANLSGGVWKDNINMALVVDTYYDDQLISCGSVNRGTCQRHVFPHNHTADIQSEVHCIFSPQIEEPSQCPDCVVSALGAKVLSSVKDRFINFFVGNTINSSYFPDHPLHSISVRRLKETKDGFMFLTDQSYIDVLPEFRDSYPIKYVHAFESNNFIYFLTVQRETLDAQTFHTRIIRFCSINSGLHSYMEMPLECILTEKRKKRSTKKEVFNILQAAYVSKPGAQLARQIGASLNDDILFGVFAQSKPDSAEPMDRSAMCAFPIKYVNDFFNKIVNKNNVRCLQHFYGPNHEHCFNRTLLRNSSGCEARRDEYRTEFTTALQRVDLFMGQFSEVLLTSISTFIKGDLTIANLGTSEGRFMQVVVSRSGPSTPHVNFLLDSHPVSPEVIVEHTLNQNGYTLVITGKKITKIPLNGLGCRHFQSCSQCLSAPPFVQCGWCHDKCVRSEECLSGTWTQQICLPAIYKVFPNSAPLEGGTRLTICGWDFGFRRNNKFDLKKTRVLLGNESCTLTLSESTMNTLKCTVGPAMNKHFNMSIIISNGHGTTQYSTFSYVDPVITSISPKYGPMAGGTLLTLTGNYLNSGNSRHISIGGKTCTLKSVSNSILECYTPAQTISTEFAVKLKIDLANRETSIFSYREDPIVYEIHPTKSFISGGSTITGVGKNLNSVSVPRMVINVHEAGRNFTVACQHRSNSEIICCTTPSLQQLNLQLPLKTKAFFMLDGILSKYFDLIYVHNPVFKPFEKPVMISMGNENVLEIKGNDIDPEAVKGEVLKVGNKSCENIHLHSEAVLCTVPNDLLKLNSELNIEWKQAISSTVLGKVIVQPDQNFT

Row | Binder | percent cytotoxicity, SNU638, 24 hrs [1] [%] | percent cytotoxicity, SNU638, 48 hrs [1] [%] | percent cytotoxicity, SNU638, 72 hrs [1] [%] | percent cytotoxicity, Hs746T, 24 hrs [2] [%] | percent cytotoxicity, Hs746T, 48 hrs [2] [%] | percent cytotoxicity, Hs746T, 72 hrs [2] [%] | percent cytotoxicity, H1993, 24 hrs [3] [%] | percent cytotoxicity, H1993, 48 hrs [3] [%] | percent cytotoxicity, H1993, 72 hrs [3] [%] | cytotoxicity, Normal Human Lung Cells, 8 hrs [4] | cytotoxicity, Normal Human Lung Cells, 16 hrs [4] | cytotoxicity, Normal Human Lung Cells, 24 hrs [4] | cytotoxicity, Normal Human Lung Cells, 32 hrs [4] | cytotoxicity, Normal Human Lung Cells, 40 hrs [4] | cytotoxicity, Normal Human Lung Cells, 48 hrs [4] | cytotoxicity, Normal Human Liver Cells, 8 hrs [5] | cytotoxicity, Normal Human Liver Cells, 16 hrs [5] | cytotoxicity, Normal Human Liver Cells, 24 hrs [5] | cytotoxicity, Normal Human Liver Cells, 32 hrs [5] | cytotoxicity, Normal Human Liver Cells, 40 hrs [5] | also measured
1 | Affy7-Y6I CAR (other, CAR on transduced human T cells; Y to I in HC CDR3; P2A remnant not included; also called MycT-Affy7-Y6I CAR-SSTR2) GSEQKLISEEDLGSQVQLQQSGPELVRPGASVKMSCRASGYTFTSYWLHWVKQRPGQGLEWIGMIDPSNSDTRFNPNFKDKATLNVDRSSNTAYMLLSSLTSADSAVYYCATIGSYVSPLDYWGQGTSVTVSSGGGGSGGGGSGGGGSDIMMSQSPSSLTVSVGEKVTVSCKSSQSLLYTSSQKNYLAWYQQKPGQSPKLLIYWASTRESGVPDRFTGSGSGTDFTLTITSVKADDLAVYYCQQYYAYPWTFGGGTKLEIKRASTTTPAPRPPTPAPTIASQPLSLRPEACRPAAGGAVHTRGLDFACDFWVLVVVGGVLACYSLLVTVAFIIFWVRSKRSRLLHSDYMNMTPRRPGPTRKHYQPYAPPRDFAAYRSLRVKFSRSADAPAYQQGQNQLYNELNLGRREEYDVLDKRRGRDPEMGGKPRRKNPQEGLYNELQKDKMAEAYSEIGMKGERRRGKGHDGLYQGLSTATKDTYDALHMQALPPR | 67 | 83.6 | 93.2 | 1.5 | 45.4 | 69.4 | 11.7 | 45.8 | 73.5 | 23.1 | 27.5 | 26.9 | 29.7 | 29.9 | 30.9 | 7.8 | 6.2 | 7.4 | 17.8 | 16.4 | cytotoxicity, Normal Human Liver Cells, 48 hrs [5]: 13.6; cytotoxicity, Normal Human Kidney Cells, 8 hrs [6]: 20.5; cytotoxicity, Normal Human Kidney Cells, 16 hrs [6]: 20.9; cytotoxicity, Normal Human Kidney Cells, 24 hrs [6]: 25.8; cytotoxicity, Normal Human Kidney Cells, 32 hrs [6]: 27.6; cytotoxicity, Normal Human Kidney Cells, 40 hrs [6]: 29.7; cytotoxicity, Normal Human Kidney Cells, 48 hrs [6]: 33.9; cytotoxicity, Normal Human Colon Cells, 8 hrs [7]: 15.1; cytotoxicity, Normal Human Colon Cells, 16 hrs [7]: 18.8; cytotoxicity, Normal Human Colon Cells, 24 hrs [7]: 20.8; cytotoxicity, Normal Human Colon Cells, 32 hrs [7]: 28.9; cytotoxicity, Normal Human Colon Cells, 40 hrs [7]: 32.5; cytotoxicity, Normal Human Colon Cells, 48 hrs [7]: 36.4; Fold Change [8]: 1830 fold; EC50 [9]: 183 µM
2 | Affy7-Y6L CAR (other, CAR on transduced human T cells; Y to L in HC CDR3; P2A remnant not included; also called MycT-Affy7-Y6L CAR-SSTR2) GSEQKLISEEDLGSQVQLQQSGPELVRPGASVKMSCRASGYTFTSYWLHWVKQRPGQGLEWIGMIDPSNSDTRFNPNFKDKATLNVDRSSNTAYMLLSSLTSADSAVYYCATLGSYVSPLDYWGQGTSVTVSSGGGGSGGGGSGGGGSDIMMSQSPSSLTVSVGEKVTVSCKSSQSLLYTSSQKNYLAWYQQKPGQSPKLLIYWASTRESGVPDRFTGSGSGTDFTLTITSVKADDLAVYYCQQYYAYPWTFGGGTKLEIKRASTTTPAPRPPTPAPTIASQPLSLRPEACRPAAGGAVHTRGLDFACDFWVLVVVGGVLACYSLLVTVAFIIFWVRSKRSRLLHSDYMNMTPRRPGPTRKHYQPYAPPRDFAAYRSLRVKFSRSADAPAYQQGQNQLYNELNLGRREEYDVLDKRRGRDPEMGGKPRRKNPQEGLYNELQKDKMAEAYSEIGMKGERRRGKGHDGLYQGLSTATKDTYDALHMQALPPR | 66.9 | 84.5 | 93.5 | 1.6 | 42.9 | 64.5 | 12.8 | 42.6 | 71.2 | 21.1 | 23.6 | 22.8 | 25.4 | 25.9 | 30.1 | 6.1 | 2.3 | 2.5 | 1.1 | 0 | cytotoxicity, Normal Human Liver Cells, 48 hrs [5]: 3.2; cytotoxicity, Normal Human Kidney Cells, 8 hrs [6]: 11.7; cytotoxicity, Normal Human Kidney Cells, 16 hrs [6]: 12.9; cytotoxicity, Normal Human Kidney Cells, 24 hrs [6]: 14.8; cytotoxicity, Normal Human Kidney Cells, 32 hrs [6]: 16.2; cytotoxicity, Normal Human Kidney Cells, 40 hrs [6]: 17.1; cytotoxicity, Normal Human Kidney Cells, 48 hrs [6]: 21.4; cytotoxicity, Normal Human Colon Cells, 8 hrs [7]: 12.1; cytotoxicity, Normal Human Colon Cells, 16 hrs [7]: 16.4; cytotoxicity, Normal Human Colon Cells, 24 hrs [7]: 13.6; cytotoxicity, Normal Human Colon Cells, 32 hrs [7]: 19; cytotoxicity, Normal Human Colon Cells, 40 hrs [7]: 20; cytotoxicity, Normal Human Colon Cells, 48 hrs [7]: 17.2; Fold Change [8]: 6190 fold; EC50 [9]: 619 µM
3 | Affy7-Y6M CAR (other, CAR on transduced human T cells; Y to M in HC CDR3; P2A remnant not included; also called MycT-Affy7-Y6M CAR-SSTR2) GSEQKLISEEDLGSQVQLQQSGPELVRPGASVKMSCRASGYTFTSYWLHWVKQRPGQGLEWIGMIDPSNSDTRFNPNFKDKATLNVDRSSNTAYMLLSSLTSADSAVYYCATMGSYVSPLDYWGQGTSVTVSSGGGGSGGGGSGGGGSDIMMSQSPSSLTVSVGEKVTVSCKSSQSLLYTSSQKNYLAWYQQKPGQSPKLLIYWASTRESGVPDRFTGSGSGTDFTLTITSVKADDLAVYYCQQYYAYPWTFGGGTKLEIKRASTTTPAPRPPTPAPTIASQPLSLRPEACRPAAGGAVHTRGLDFACDFWVLVVVGGVLACYSLLVTVAFIIFWVRSKRSRLLHSDYMNMTPRRPGPTRKHYQPYAPPRDFAAYRSLRVKFSRSADAPAYQQGQNQLYNELNLGRREEYDVLDKRRGRDPEMGGKPRRKNPQEGLYNELQKDKMAEAYSEIGMKGERRRGKGHDGLYQGLSTATKDTYDALHMQALPPR | 61.2 | 77.5 | 90.6 | 47.6 | 87 | 96.4 | 21.3 | 70.5 | 89.6 | 9.9 | 9.7 | 6.3 | 6.9 | 9.5 | 13.8 | 7.2 | 6.2 | 9 | 10.9 | 11.3 | cytotoxicity, Normal Human Liver Cells, 48 hrs [5]: 10; cytotoxicity, Normal Human Kidney Cells, 8 hrs [6]: 8.8; cytotoxicity, Normal Human Kidney Cells, 16 hrs [6]: 10; cytotoxicity, Normal Human Kidney Cells, 24 hrs [6]: 12; cytotoxicity, Normal Human Kidney Cells, 32 hrs [6]: 13.3; cytotoxicity, Normal Human Kidney Cells, 40 hrs [6]: 15.9; cytotoxicity, Normal Human Kidney Cells, 48 hrs [6]: 19.7; cytotoxicity, Normal Human Colon Cells, 8 hrs [7]: 1.4; cytotoxicity, Normal Human Colon Cells, 16 hrs [7]: 1.7; cytotoxicity, Normal Human Colon Cells, 24 hrs [7]: 1.4; cytotoxicity, Normal Human Colon Cells, 32 hrs [7]: 7.1; cytotoxicity, Normal Human Colon Cells, 40 hrs [7]: 1.8; cytotoxicity, Normal Human Colon Cells, 48 hrs [7]: 3.6; Fold Change [8]: 172 fold; EC50 [9]: 17.2 µM

— patent US20250276018A1 (AFFYIMMUNE THERAPEUTICS, published 2025)
